In the DeepSol protein solubility set:

Experiment: soluble on expression in E. coli; label from the status in PepcDB or PDB records

Sequence	soluble on expression in E. coli
MSLDLPYLSPTPFIKPVPSFKKYSMGFYPIVDSSHWLEMLLPLGIKCIQLRIKEASQERLEEEIKRSVHLANQYNAALFINDHWELAIHYGAAGVHLGQEDLEKADVDRINRSGLFLGISTHCYYEVARAHALNPSYVACGPIYETTSKIMPFQAQGIARLERWRKTLRYPLVAIGGITLKNLSDVLKTKIDGVSVISAITKASAPLVAAKQFLTQMNESHNEGHHHHHH	not soluble
MGSDKIHHHHHHMNNIGLILEGGGMRGVYTAGVLDFFMDKNLYFPYVSGVSMGACNAASYVSKQRGRTKSVTVDLADDSRYISLKNFIKYKSIFGMDFIFDEVPNKLFPFDFNTFSNSTQKLVIGTTDCLTGKEVYFSHSSSNDILDIIRASSSLPFISEPVKINNYTLMDGGIADPIPIKRSIEDGNAKNVLILTREADYIKNPFKHNWILSKKYSQFKGLCKAILNRHKLYNETLKYISHLENTGKVFIIRPTFSPKVKRIEKNKSRLNALYLEGYKDAEKNYDKLLQFLNSN	not soluble
SLTQIQPGVEKFIKDFNDAKKKGEHAYDMTLSYQNFDKGFFNSRFQMQMTFDNGAPDLNIKPGQKVVFDVDVEHGPLPITMLMHGNVIPALAAAKVNLVNNELTQPLFIAAKNKSPVEATLRFAFGGSFSTTLDVAPAEYGKFSFGEGQFTFNGDGSSLSNLDIEGKVEDIVLQLSPMNKVTAKSFTIDSLARLEEKKFPVGESESKFNQINIINHGEDVAQIDAFVAKTRLDRVKDKDYINVNLTYELDKLTKGNQQLGSGEWSLIAESIDPSAVRQFIIQYNIAMQKQLAAHPELANDEVALQEVNAALFKEYLPLLQKSEPTIKQPVRWKNALGELNANLDISIADPAKSSSSTNKDIKSLNFDVKLPLNVVTETAKQLNLSEGMDAEKAQKQADKQISGMMTLGQMFQLITIDNNTASLQLRYTPGKVVFNGQEMSEEEFMSRAGRFVH	soluble
SQPKVPEWVNTPSTCCLKYYEKVLPRRLVVGYRKALNCHLPAIIFVTKRNREVCTNPNDDWVQEYIKDPNLPLLPTRNLSTVKIITAKNGQPQLLNSQ	soluble
MSELFSNDNIFLNVNVNSQNEAIEKAGKALVDSGAVTDAYIQAMKDREQVVSTFMGNGLAIPHGTDEAKTNVIHSGLTLLQIPEGVDWDGEVVKVVVGIAGKDGEHLDLLSKIAITFSEEENVDRIVQAKSAEEIKQVFEEADA	not soluble
MPWIAKRRGHDADFFIMRIPRIYHPELLTSGTQISLCEDAANHIGRVLRMGPGQALQLFDGSNQVFDAEIISASKKSVEVQVMKGEIDDRESPLHIHLGQVMSRGEKMEFTIQKSIELGVSLITPLFSERCGVKLDSERLNKKRQQWQKIAIAACEQCGRNRVPEIRPPMALEAWCAEQDSGLKLNLHPRAHASINTLPLPVERVRLLIGPEGGLSADEIAMTARYQFTDILLGPRVLRTETTALTAITALQVRFGDLG	not soluble
ADDPIRMYFEPGHYTVMENCGEFEVRVVRRGDISTYASVEYETQDGTASAGTDFVGRKGLLSFPPGVDEQRFRIEVIDDDVFEEDECFYIRLFNPSEGVKLAVPMIATVMILDDDHAGIFAFTDSVFEITESVGRFE	soluble
MDAGLDARGKGWARAITRLCDEHLYYLMLYFRWFDEDSWRVLKPVFFGSLPFGVRDAVAWAMRRKVRATLRAQGLGVHGRDELLAFARDDLDALDGLLGQVPYYGGEHPCSADAAAYGILANLIEATLDTPLSHVARGYPRLVAYCERMRERVWSELEHHHHHH	not soluble
HGPKTGTPETKTVEIPFETKREFNPKLQPGEERVKQEGQPGSKTITTPITVNPLTGEKVGEGQPTEEITKQPVDKIVEFGGEK	soluble
MGSDKIHHHHHHMTAPMNVIDDYYVSLGKIGILNYRTMDESGENAFLRKYLPSLSSPTILDVGANIGGYSKAILRESPSARVYAFEPHPITFGNLTKDTAEDRFHALNIGIGAKEETLDFYDYRDEDGSSHASLYKEVIEDIHHRPSTSHRVSIRRLDDVCAELGLPHIALLKIDTEGHELAALQGAERLIRSGAIDVIQFEFNEMNVISRCFFKDFWDFLPDYRFFRLLPHGSIEIKTYIPSFCEIFAFQNIVCVKKDLPEFF	not soluble
MGSDKIHHHHHHMTATDSSILNQYLVGKEPFYQPQHDEVALFEAAYRKRLPVMVKGPTGCGKSRFVEFMAWRLGKPLVTVACNEDMTAADLVGRWLLDKDGTRWQDGPLTVAARYGAICYLDEIVEARQDTTVVIHPLTDHRRTLPLDKKGELIRAHPDFQLVISYNPGYQSLMKDLKQSTKQRFTGFEFDYPNAELEAGILVQETGVAPSIAAQLVTVAATARRLKGHGLDEGISTRLLVYAAMLMDDGVAPRAACRMALVQPITDDADIRATLEHAIDMTFA	not soluble
MGSDKIHHHHHHMSKRLMPSTTALQCFEAAARHLSFTRAAQELHLTQSAVSKQVAQLEDMLSHSLFQRIRRRLHLTPAGALYLTEVNKILTQIDISSRYILSYGDETEVLRIATQPTFGARWLVPRLKGFGDRYPRIHLDVRNELEPFDLVQAKADVAFFFGQGTWPGATCIELFSEEVVPVCSPQLLASHRFDSAQALTEHRLLQCVSRPEAWHEWFLGLGLHSQNSYHGPRFDTFYLCIRAAISGCGIALIPRYLVAEELSEGKLVVAWDHPVASNGRHFIAHAEHAAEVPKIRAFVQWIRERVAEGD	not soluble
MAKQDVIELEGTVLDTLPNAMFKVELENGHEILAHVSGKIRMNYIRILPGDKVTVEMSPYDLTRGRITYRYK	not soluble
MPLELWIVFNLFGRKSPRSNIKPARGPGETVREADLRYLQEWVSTHAVVEAFVEPETIVNEMSVVLVDITGEFTRRRIGGPKGIDVISSTLGVPVYDVEETGYPQRMREKIERDRILRKREEQRERREKLQRERGESQ	not soluble
MGSSHHHHHHSSGRENLYFQGHMSNTYQKRKASKEYGLYNQCKKLNDDELFRLLDDHNSLKRISSARVLQLRGGQDAVRLAIEFCSDKNYIRRDIGAFILGQIKICKKCEDNVFNILNNMALNDKSACVRATAIESTAQRCKKNPIYSPKIVEQSQITAFDKSTNVRRATAFAISVINDKATIPLLINLLKDPNGDVRNWAAFAININKYDNSDIRDCFVEMLQDKNEEVRIEAIIGLSYRKDKRVLSVLCDELKKNTVYDDIIEAAGELGDKTLLPVLDTMLYKFDDNEIITSAIDKLKRS	soluble
MEDDAPMNLCNEQFEEIEDSPIDDNDNESFYNADGDVELEEEEVHETPKNFKNGGRFKTNMTNPKVNDLTTIEEKNEDLRSAASSRSASRPASVMSDKSFSSQFEFQSGGENAIEEYTNQVFADENKADLLFPETSKFMNGASPPKDKHHSWEPSIHHYDKQPPPDIQTNSPVFGNLNHRKNKLIPQARAKPGANDNEIVERDNDENVPTTSDKSAFITSPMNSTNHDEKTSTPKRPTNRKIGQYQGPNFDLSSIYVGSPQHQNTSISTGQQMPTSSYSHAHSETMMTNQTINESMVRRVLNGNNKNQDLFAALEEARKRRAAQPSKPDFRINTTRTRVPIKPTSARHSGNVVSSTSNDNTTAASSKDLTTSRKAMETFRQNASMADATNSNTASMTSILSTISTARTDISRSSRNHGGGFSNTSVSTVIPANNGNVSLSHGRDGRDSVSSVRTMSRASSTSTVYAGSTFSGVSKPLRIHAKRVAFGCVAVGETLRVEVEVENISDRQCLVRASTDSTTPVYQILDNKLTMVDPKKSIKFQVSFSPSSVGRYQVIMSIEVPAQNFIHKIPMWGNGGIAKFVPTSPDLQQTINQSEYAMCTSCAKRISFKISNSAGTRDGFAMIKVFDSAMRQLPDGCVAFFPAPGFIVKKKSDKRVDIRIDSSYIDLHDENNFRTSSSLSTASTTSSFQRRILPGAKFFVHVVWGEETMRTRLRLLEVRTGQHQLIDGHDFTSFQFSDEEVLRAVPVGFPAIKPEDRDLFAASYRSFFINFFTSTTEFRAATSRKKKEICSNDDSTLLETTAFRNQTFVNDVTIVPNTRFSNRK	not soluble
MAVAALKALLPPERLRRLTPLGGFEARVYTDGERVYKVYRKEEAHLAGLEARRMARAGFGSLVLAVIQGAEGGVLVTRRFPGRPFAPEAFTSKTLAALSHLFLALHRLPEPGKVTQEELLSRLERFAESLHDQPEALSLVQALKREVGLAAGVERRFCHRDAWAGNLLLKAPEAEGPEVFLVDWARAGGDDPARDLALLKTGSLDLLGEEAARAALFRMARLYPKEVRERLAFYVPLTYLHDLHWFRTKEPQGFPQALEEKLPKALAFFRDFFPRRGAW	soluble
DVFQNKANVCWAKALVPVLKTAGIDMTTEQWNTVDYFETDKAHSAEIVLNQLCVRFFGLDLDSGLFSAPTVPLSIRNNHWDNSPSPNMYGLNKEVVRQLSRRYPQLPRAVATGRVYDMNTGTLRNYDPRINLVPVNRRLPHALVLHHNEHPQSDFSSFVSKLKGRTVLVVGEKLSVPGKMVDWLSDRPEATFRARLDLGIPGDVPKYDIIFVNVRTPYKYHHYQQCEDHAIKLSMLTKKACLHLNPGGTCVSIGYGYADRASESIIGAIARQFKFSRVCKPKSSLEETEVLFVFIGYDRKARTHNPYKLSSTLTNIYTGS	soluble
MSIKEQTLMTPYLQFDRNQWAALRDSVPMTLSEDEIARLKGINEDLSLEEVAEIYLPLSRLLNFYISSNLRRQAVLEQFLGTNGQRIPYIISIAGSVAVGKSTTARVLQALLSRWPEHRRVELITTDGFLHPNQVLKERGLMKKKGFPESYDMHRLVKFVSDLKSGVPNVTAPVYSHLIYDVIPDGDKTVVQPDILILEGLNVLQSGMDYPHDPHHVFVSDFVDFSIYVDAPEDLLQTWYINRFLKFREGAFTDPDSYFHNYAKLTKEEAIKTAMTLWKEINWLNLKQNILPTRERASLILTKSANHAVEEVRLRK	soluble
MGLLIEGRWHDQWYESGKDGAFQREQAQRRNWVTADGRPGPSGEGGFAAEAGRYHLYVSLACPWAHRTLILRKLKGLEQLIDVSVVSWLMRENGWTFDSAHGSSGDALDHFDFMHQRYTADTADYTGRVTVPVLWDKQQQRIVSNESAEIIRMFNSAFDGLTGNGLDFYPQPLRARIDELNARIYPALNNGVYRAGFATSQQAYETAFDDVFAELDALEALLDKQRYLAGEYLTEADVRLFTTLIRFDAVYHGHFKCNLRRIADYPNLSNWLRELYQWPGIAETVDFAHIKGHYYASHTTINPTGIVPKGPLQDFSRAHDRQRLSGQGVWCRGLEHHHHHH	not soluble
MTIKRVGILGAGKVGIVLAGLALKAGYEVRISGSGSVDKIDLTISTLVPGAIASENAEVVANSDIIILAIPLSRYKNIDPTLLKGKLVIDAMNYWWETDGIREEVLDPTLTSSEQVQNYFKDSTIVKTFNHMGYHNLQEEALPKLEHHHHHH	soluble
MTRDDDDDEDDEEEEDSGAWGRESYAFDGFHPTEEFGFSFSPRGGMRFHGNFGFDDLVRDFNSIFSEMGAWTLPSHSPELPGPESETPGVRLREGQTLRDSMLKYPDSHQPRIFEGVLESHAKPESSKPAPDWGSQGPFHRLDDTWPVSPHSRAREDKDLDSQVSQEGLGPLLQPQPKSYFKSISVTKITKPDGTVEEHRTVVDGEGRRETTVTHQEAHDSSRSDPDPPRSSALDDPFSILDLLLGRWFRSR	not soluble
MNPLERKVKQEAEEDGYSSFDEFPAGAIRIPYEELMAKVRAKKAEAEAAQDLVNENSFDQFVAAPPAPPVQKPAVEPSPSCSPETVAVQKFVTEFMQAAGGSRELRIIKDSQETKIVWKTSPAKPKAPPVEDDPTDPTDSQVSTVSSIIPVSSPRGKRRIVVSSDKDSDGDETPTEDNVNNDDQDVTPKKNRKPPVEVVTPSPAKRLRGLNLRSAHSSSDSESDFQDTQCEDSQDSDYFPDTQEQRDRPADFRIPKNAAYDPLDLSYN	not soluble
